Test results taken from the RNAGym collection of RNA variant scans (doi:10.1073/pnas.2313332121).

B1: TPR t1 (parent)
chain: GACCAAUCUGCCCUCAGAGCUCGAGAACAUCUUCGGAUGCAGAGGAGGCAGGCUUCGGUGGCGCGAUAGCGCCAACGUCCUCAACCUCCAAUGCAUCCCACCACAUGAUGAUGCCUGAAGAGCCUUGGUUUUUUG

Variants of: B1
Assay: polymerase ribozyme fitness, log enrichment relative to wild type (log ratio); higher = more active; in vitro selection for triplet polymerase activity
Summary of the method: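 The heterodimeric triplet polymerase ribozyme's subunits were each mutagenized into PCR-built libraries and transcribed. Every library was selected once, in triplicate, by annealing with a biotinylated primer, the partner subunit and triplets, incubating frozen at −7 °C, gel-excising extended constructs, capturing on streptavidin beads and running RT-PCR. Input and output libraries were Illumina-sequenced, with genotypes kept only at ≥10 input reads and ≥1 read per output. Fitness, from inverse-variance-weighted replicate averages, is the base-2 logarithm of genotype enrichment over wild-type enrichment.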

Row | Variant | polymerase ribozyme fitness (log ratio)
1 | G57A U78G C82G | -0.698
2 | G57A U87C | -1.14
3 | G57C A83G U116G | -2.83
4 | G57C A91C | -0.77
5 | G57C C62A G122A | -3.31
6 | G57C C62U | -0.549
7 | G57C C62U G135U | -1.15
8 | G57C C70U | -0.607
9 | G57C C88U A95U | -1.98
10 | G57C C97G | -4.65
11 | G57C C97U | -0.494
12 | G57C C97U G110U C115U | -6.98
13 | G57C C99U A118G | -4.32
14 | G57C C115A | 0.0474
15 | G57C G58A C114U | -3.53
16 | G57C G60U A100U U130G | -0.0419
17 | G57C G61A C97G | -4.41
18 | G57C G61A G120A | 0.501
19 | G57C G63A A100U U112C U125C | -0.23
20 | G57C G110U G120U | -4.33
21 | G57C G135U | -0.876

Row | Variant | polymerase ribozyme fitness (log ratio)
22 | G57C U81C | 0.391
23 | G57C U87A | -1.1
24 | G57U A74G | -0.836
25 | G57U A91G C114A U131A | -3.11
26 | G57U C62A G117U | -5.4
27 | G57U C62G A121G U130A | -0.352
28 | G57U C62U U67C U87G C101G G113C | -6.27
29 | G57U C62U U81A | -0.351
30 | G57U C70G C124G | -2.06
31 | G57U C70U C76G U131C | -0.726
32 | G57U C72G C115A U132C G135C | -4.51
33 | G57U C72G U96A | -2.83
34 | G57U C79U A108G | -2.71
35 | G57U C85A | -2.14
36 | G57U C94A | -1.08
37 | G57U C94G U112G | -4.47
38 | G57U C101G U106A G122A | -0.938
39 | G57U C123U | 0.41
40 | G57U G58C | -1.12
41 | G57U G61C U92C | -2.88
42 | G57U G63A C89G | -3.98

Row | Variant | polymerase ribozyme fitness (log ratio)
43 | G57U G69U | -0.378
44 | G57U G71C | -3.42
45 | G57U G77C U130G | -2.56
46 | G57U G93A G110C | -5.09
47 | G57U G110U | -1.8
48 | G57U U78G C114U A118U | -3.81
49 | G57U U81G | -0.222
50 | G57U U125A | -0.415
51 | G57U U132C | 0.0378
52 | G58A A84U U133A | -0.154
53 | G58A A111C A119C G120U G127U | -1.16
54 | G58A C62A | -2.66
55 | G58A C64U U78C C86U A111C U129C | -1.68
56 | G58A C82G C88A G127U | -3.33
57 | G58A C114G | -3.37
58 | G58A G60A | -0.506
59 | G58A G71U C79A | -1.79
60 | G58A U59C | -0.583
61 | G58A U96C | -0.271
62 | G58A U125G | -0.683
63 | G58A U129C | -0.222

Row | Variant | polymerase ribozyme fitness (log ratio)
64 | G58C A84U A100C | -1.55
65 | G58C C70U A103U | -6.42
66 | G58C C72G A121U | 1.78
67 | G58C C72U A119U | -0.967
68 | G58C C73G C80U C102A G113A | -5.77
69 | G58C C80A | -3.5
70 | G58C C80G C88A | -6.49
71 | G58C C82G U87G G93C C123A | -0.69
72 | G58C C85A | 0.0552
73 | G58C C86A C89G | -4.05
74 | G58C C101G C114A | -3.77
75 | G58C C101G U112C U129G | -1.34
76 | G58C C102A | -2.66
77 | G58C C124A | 1.82
78 | G58C G60U A118G | -0.24
79 | G58C G63C | -2.61
80 | G58C G63C G128A | -1.77
81 | G58C G69A C123A | -3.42
82 | G58C G71C C115A A118U | -1.75
83 | G58C G77A C97U | 0.13
84 | G58C G93A C114U | -3.02
